Measured values as given in US20070077212A1, “Protein with activity of hydrolyzing amylopectin, starch, glycogen and amylose, gene encoding the same, cell expressing the same, and production method thereof” (LIFENZA CO., LTD., priority 2004, published 2007).
“Also recorded” adds a separate entry of the source.

What was measured:
Type in all cases: biochemical
[1] = Relative substrate specificity of LSA enzyme: dextran
Protocol: (§1) The reducing value of the carbohydrolase was determined by a DNS (3,5-dinitrosalicylic acid) method in combination with a copper-bicinchoninate method. That is, 100 μl of copper-bicinchoninate was added to 100 μl of an enzyme solution, and allowed to react at 80C. for 35 min, followed by being cooled for about 15 min. Absorbance was measured at 560 nm.

[2] = Relative substrate specificity of LSA enzyme: starch
Protocol: as §1

[3] = TLC analysis of reaction with maltooligosaccharide series; settings: mixture of maltooligosaccharide series
Protocol: FIG. 8 is a photograph of a TLC result showing the enzymatic activity of the LSA of the present invention in which starch samples (1% w/v) are analyzed, along with maltodextrin (Mn), before and after being hydrolyzed by the enzyme (lanes 1 and 2 in panel A, respectively) and maltooligosaccharide samples (1% w/v) are analyzed after purified LSA is allowed to react with a series of maltooligosaccharides including G1 (glucose) to G7 (maltoheptaose) (lanes 1 to 7 in panel B, respectively).
(§2) Subsequently, the malto oligosaccharides were degraded into maltopentaose and lower oligosaccharides.

[4] = Relative substrate specificity of LSA enzyme: alpha-cyclodextrin
Protocol: as §1

[5] = Relative substrate specificity of LSA enzyme: amylodextrin
Protocol: as §1

[6] = Relative substrate specificity of LSA enzyme: amylose
Protocol: as §1

[7] = Activity staining on starch-containing PAGE gel; settings: 30 min at 37° C.
Protocol: For sodium dodecyl sulfate-polyacrylamide gel electrophoresis (SDS-PAGE), protein samples were loaded onto 10% polyacrylamide gel in Tris-glycine buffer (pH 8.8). The polyacrylamide gel contained 1% starch in order to detect whether the protein samples could degrade starch polysaccharide. After completion of the electrophoresis, SDS was removed by washing the gel with 50 mM Tris-HCl buffer (pH 8.0) and a 20% 2-propanol solution for 1 hour. The gel was immersed in a reaction buffer (50 mM sodium acetate, 5 mM CaCl2, pH 5) at 37° C. for […] and then in an iodide solution (0.3% iodide, 3% potassium iodide) for 10 min, and washed with distilled water. The starch hydrolyzing activity was identified by the appearance of a clear zone against a brown background.
Following IPTG induction in E. coli, the cells were harvested, and disrupted by sonication. Proteins were purified using His-tagged affinity column and analyzed by SDS-PAGE (10%) (FIG. 3, lane 1). The band for the mainly expressed protein corresponded to 73 kDa (LSA+His-tag). To examine the ability of the purified protein to degrade polysaccharides such as starch, electrophoresis was carried out using a PAGE gel containing starch. After completion of the electrophoresis, the gel was allowed to stand for 30 min at 37° C. and stained with an iodine solution. […]

[8] = Relative substrate specificity of LSA enzyme: glycogen
Protocol: as §1

[9] = TLC analysis of starch hydrolysis products; settings: 2% starch
Description: as §2

[10] = Assay for optimal pH and temperature and stability of enzyme
Protocol: as §1
The enzyme LSA was assayed for optimal pH by measuring reaction rates in the range of pH 3-9 at intervals of pH 1.0. For this purpose, 2OmM citrate phosphate buffer (pH 4.0), citrate/phosphate buffer (pH 5-6) and sodium phosphate buffer (pH 7-9) were used. After reaction at 37° C. for […], the carbohydrolase activity of the enzyme was determined by a DNS method. Also, the pH stability of the enzyme was measured after the enzyme was added to each buffer and allowed to stand for 3 hours at 22° C.
The optimal temperature of the enzyme was determined by measuring the reaction rates of the enzyme which had been allowed to stand for 30 min at various temperatures (20-80° C., 10C. interval). […] 1% (w/v) starch was used as a substrate in determining the activity and stability of the enzyme.

[11] = Effect of metal ions, chelating agents and denaturants on LSA enzyme activity
Protocol: as §1
Effects of EDTA, EGTA and metal ions on enzyme activity were measured. EDTA and EGTA were each used at a final concentration of 1 mM. As for metal ions, they included ZnCl2, CuS04, CaCl2 and MgCl2 and were used at a final concentration of 5 mM. The enzyme activity was also measured in the presence of dodesyl sulfate (SDS, 0.1%, 0.5%, 1%, 2%), urea (2M), acetone (0-80%) and ethanol (0-70%). For the measurement, the enzyme was allowed to react at 37° C. for 30 min with 2% starch as a substrate.

[12] = Relative substrate specificity of LSA enzyme: pullulan
Protocol: as §1

[13] = Relative substrate specificity of LSA enzyme: amylopectin
Protocol: as §1

B1: LSA: carbohydrolase derived from Lipomyces starkeyi, amino acid sequence SEQ. ID. No. 1, expressed in E. coli; hydrolyzes amylopectin, starch, glycogen and amylose (protein)
chain: MLLINFFIAVLGVISLSPIVVARYILRRDCTTVTVLSSPESVTSSNHVELASHEMCDSTLSASLYIYNDDYDKIVTLYYLTSSGTTGSVTASYSSSLSNNWELWSLSAPAADAVEITGASYVDSDASATYATSFDIPLTTTTTSSSSASATSTSSLTTTSSVSISVSVPTGTAANWRGRAIYEIVTDRFARTDGSTTYLCDVTDRVYCGGSYEGIINMLDYIEGMGFTAIWISPIVENIPDDTGYGYAYHGYWMKDIFALNTNFGTADDLIALATELHNRGMYLMVDIVVNHFAFSGSHADVDYSEYFPYSSEDYFHSFCWITDYSNETNVEQCWLGDDTVPLVDVNTELDTVKSEYQSWVEELIANYSIDGLRIDTVKHVEMDFWAPFEEAAGIYAVGEVFDGDPSYTCPYEENLDGVLNYPVYYPVVSAFESVSGSVSSLVDMIDTLKSECTDTTLLGSFLENEDNPRFPSYTSDESLIKNAIAFTMLSDGIPIIYYGEEQGLNGGNDPYNREALWLTGYSTTSTFYKYIASLNEIRNEAIYKDDTYLTYENWVIYSDSTTIAMRKGFTGNEIITVLSNLGTSGSSYTLTLSNTGYTASSVVYEILTCTAVTVDSSGNLAVPMSSGLPKVFYEESQLVGSGICSM
modifications: E. coli BL21(DE3)pLysS
notes: ID; No. 1, expressed in E. coli; hydrolyzes amylopectin, starch, glycogen and amylose
degradation of dextran (in words) [1]: degrade; also recorded: weakly | Relative Activity (%) ([1]; substrate Dextran, relative to starch): 4% | degradation of starch (soluble) (in words) [2]: strongly | Relative Activity (%) ([2]; substrate Starch): 100% | degradation products of G6 [3]: G2+G4 or into G3+G3 | hydrolysis of G2 [3]: did not hydrolyze | hydrolysis of G3 [3]: did not hydrolyze | degradation of a-cyclodextrin (in words) [4]: degrade; also recorded: weakly | Relative Activity (%) ([4]; substrate alpha-CD, relative to starch): 4% | degradation of amylodextrin (in words) [5]: weakly | Relative Activity (%) ([5]; substrate Amylodextrin, relative to starch): 17% | degradation of amylose (in words) [6]: weakly | Relative Activity (%) ([6]; substrate Amylose, relative to starch): 41% | starch degradation on gel, iodine staining [7]: clear zone | degradation of glycogen (in words) [8]: strongly | Relative Activity (%) ([8]; substrate Glycogen, relative to starch): 80% | hydrolysis products, early stage of reaction [9]: oligosaccharides larger than maltopentaose were produced | hydrolysis products, final [9]: maltotriose and maltotetraose were predominant | optimum pH [10]: 6 pH | pH range in which activity is 90% of its maximum [10]: 5-8 pH | pH range in which amylase activity is kept stably [10]: 5-8 pH | temperature of optimal activity ([10]; 1% (w/v) starch): 40 °C | temperature range of stability ([10]; 1% (w/v) starch): 20-50 °C | activity after incubation, relative to stable temperatures ([10]; incubation at 60° C. for 3 hours): 70% | effect on enzyme activity ([11]; 1 mM EDTA): inhibited | increase of starch degradation activity ([11]; 5 mM Ca+): about 315% | effect on starch degradation activity ([11]; 5 mM Cu^2+): inhibited | increase of starch degradation activity ([11]; 5 mM Mg^2+): ~220% | increase in activity ([11]; 10-20% ethanol solution): 1.25-1.33 fold | increase in activity ([11]; 10-40% acetone): 1.03-1.22 fold | activity relative to optimal activity ([11]; 60% acetone): lower than 50% | activity relative to optimal activity ([11]; 60% ethanol): lower than 50% | Relative Activity (%) ([11]; Acetone 20%): 122% | Relative Activity (%) ([11]; Acetone 30%): 115% | Relative Activity (%) ([11]; CaCl2 5 mM): 315% | Relative Activity (%) ([11]; CaCl2 + EDTA 5 mM/1 mM): 185% | Relative Activity (%) ([11]; CuSO4 5 mM): 20% | Relative Activity (%) ([11]; CuSO4 + EDTA 5 mM/1 mM): 12% | Relative Activity (%) ([11]; EDTA 1 mM): 46% | Relative Activity (%) ([11]; EGTA 1 mM): 105% | effect on enzyme activity ([11]; EGTA (1 mM; EGTA-containing solution)): not inhibited; also recorded: not influenced | Relative Activity (%) ([11]; MgCl2 5 mM): 220% | Relative Activity (%) ([11]; MgCl2 + EDTA 5 mM/1 mM): 129% | effect on starch degradation activity ([11]; SDS): completely inhibited | Relative Activity (%) ([11]; SDS 0.1%): 66% | Relative Activity (%) ([11]; SDS 0.5%): 49% | Relative Activity (%) ([11]; SDS 1%): 24% | Relative Activity (%) ([11]; SDS 2%): 12% | Relative Activity (%) ([11]; Urea 2M): 115% | effect on starch degradation activity ([11]; acetone): increased | Relative Activity (%) ([11]; additive: None, 2% starch, 37° C., 30 min): 100% | effect on starch degradation activity ([11]; urea): increased | degradation of pullulan (in words) [12]: degrade; also recorded: weakly | Relative Activity (%) ([12]; substrate Pullulan, relative to starch): 3% | degradation of amylopectin (in words) [13]: strongly | Relative Activity (%) ([13]; substrate Amylopectin, relative to starch): 141%
